Data taken from the supplement of paper PMC5998384.

Experiments:
[1] = test system: HeLa Kyoto; assay: solubility in G1/S (NP-40 vs SDS abundance) (log2 ratio); higher = more soluble; settings: cell cycle stage: G1/S
[2] = test system: HeLa Kyoto; assay: thermal stability score vs G1/S (z-score of summed log2 fold changes over temperatures); higher = more thermally stable than in G1/S
[3] = test system: HeLa Kyoto; assay: melting temperature (median over replicates), in situ; higher = more thermally stable
[4] = test system: HeLa Kyoto; assay: solubility change mitosis vs G1/S (difference of NP-40 vs SDS log2 ratios) (log2 ratio difference); higher = more soluble in mitosis
[5] = cell cycle stage: early G1 (4.5 h after nocodazole release)
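Wherever melting temperature (median over replicates), in situ is given: HeLa Kyoto cells synchronized by double thymidine or nocodazole block, proteins quantified by TMT10plex mass spectrometry, three independent biological replicates.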
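Wherever solubility change mitosis vs G1/S (difference of NP-40 vs SDS log2 ratios) is given: synchronized HeLa Kyoto cells (double thymidine block for G1/S, nocodazole release for mitosis), protein amounts in NP-40 versus SDS lysates quantified by mass spectrometry, three biological replicates.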
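Wherever solubility in G1/S (NP-40 vs SDS abundance) is given: HeLa Kyoto cells arrested at G1/S by double thymidine block, proteins quantified by TMT10plex mass spectrometry in mild NP-40 versus SDS extracts, three biological replicates.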
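Wherever thermal stability score vs G1/S (z-score of summed log2 fold changes over temperatures) is given: synchronized HeLa Kyoto cells, proteins quantified by TMT10plex mass spectrometry, three biological replicates, mitosis taken 0.5 h after nocodazole release, G1/S directly after double thymidine block.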

Sequence	solubility in G1/S (log2) [1]	thermal stability score [2, 5]	thermal stability score ([2]; cell cycle stage: mitosis)	melting temperature ([3]; cell cycle stage: G1/S)	melting temperature ([3]; cell cycle stage: mitosis)	solubility change mitosis (log2) [4]
MPAERKKPASMEEKDSLPNNKEKDCSERRTVSSKERPKDDIKLTAKKEVSKAPEDKKKRLEDDKRKKEDKERKKKDEEKVKAEEESKKKEEEEKKKHQEEERKKQEEQAKRQQEEEAAAQMKEKEESIQLHQEAWERHHLRKELRSKNQNAPDSRPEENFFSRLDSSLKKNTAFVKKLKTITEQQRDSLSHDFNGLNLSKYIAEAVASIVEAKLKISDVNCAVHLCSLFHQRYADFAPSLLQVWKKHFEARKEEKTPNITKLRTDLRFIAELTIVGIFTDKEGLSLIYEQLKNIINADRESHTHVSVVISFCRHCGDDIAGLVPRKVKSAAEKFNLSFPPSEIISPEKQQPFQNLLKEYFTSLTKHLKRDHRELQNTERQNRRILHSKGELSEDRHKQYEEFAMSYQKLLANSQSLADLLDENMPDLPQDKPTPEEHGPGIDIFTPGKPGEYDLEGGIWEDEDARNFYENLIDLKAFVPAILFKDNEKSCQNKESNKDDTKEAKESKENKEVSSPDDLELELENLEINDDTLELEGGDEAEDLTKKLLDEQEQEDEEASTGSHLKLIVDAFLQQLPNCVNRDLIDKAAMDFCMNMNTKANRKKLVRALFIVPRQRLDLLPFYARLVATLHPCMSDVAEDLCSMLRGDFRFHVRKKDQINIETKNKTVRFIGELTKFKMFTKNDTLHCLKMLLSDFSHHHIEMACTLLETCGRFLFRSPESHLRTSVLLEQMMRKKQAMHLDARYVTMVENAYYYCNPPPAEKTVKKKRPPLQEYVRKLLYKDLSKVTTEKVLRQMRKLPWQDQEVKDYVICCMINIWNVKYNSIHCVANLLAGLVLYQEDVGIHVVDGVLEDIRLGMEVNQPKFNQRRISSAKFLGELYNYRMVESAVIFRTLYSFTSFGVNPDGSPSSLDPPEHLFRIRLVCTILDTCGQYFDRGSSKRKLDCFLVYFQRYVWWKKSLEVWTKDHPFPIDIDYMISDTLELLRPKIKLCNSLEESIRQVQDLEREFLIKLGLVNDKDSKDSMTEGENLEEDEEEEEGGAETEEQSGNESEVNEPEEEEGSDNDDDEGEEEEEENTDYLTDSNKENETDEENTEVMIKGGGLKHVPCVEDEDFIQALDKMMLENLQQRSGESVKVHQLDVAIPLHLKSQLRKGPPLGGGEGEAESADTMPFVMLTRKGNKQQFKILNVPMSSQLAANHWNQQQAEQEERMRMKKLTLDINERQEQEDYQEMLQSLAQRPAPANTNRERRPRYQHPKGAPNADLIFKTGGRRR [UPF2]	-0.245	-0.603	-0.161	49.6 °C	49.7 °C	-0.109
MPILKQLVSSSVHSKRRSRADLTAEMISAPLGDFRHTMHVGRAGDAFGDTSFLNSKAGEPDGESLDEQPSSSSSKRSLLSRKFRGSKRSQSVTRGEREQRDMLGSLRDSALFVKNAMSLPQLNEKEAAEKGTSKLPKSLSSSPVKKANDGEGGDEEAGTEEAVPRRNGAAGPHSPDPLLDEQAFGDLTDLPVVPKATYGLKHAESIMSFHIDLGPSMLGDVLSIMDKEEWDPEEGEGGYHGDEGAAGTITQAPPYAVAAPPLARQEGKAGPDLPSLPSHALEDEGWAAAAPSPGSARSMGSHTTRDSSSLSSCTSGILEERSPAFRGPDRARAAVSRQPDKEFSFMDEEEEDEIRV [CDC42EP4]	0.487	-3.73	-2.19	53.6 °C	51.8 °C	-0.0259
MTIHQFLLLFLFWVCLPHFCSPEIMFRRTPVPQQRILSSRVPRSDGKILHRQKRGWMWNQFFLLEEYTGSDYQYVGKLHSDQDKGDGSLKYILSGDGAGTLFIIDEKTGDIHATRRIDREEKAFYTLRAQAINRRTLRPVEPESEFVIKIHDINDNEPTFPEEIYTASVPEMSVVGTSVVQVTATDADDPSYGNSARVIYSILQGQPYFSVEPETGIIRTALPNMNRENREQYQVVIQAKDMGGQMGGLSGTTTVNITLTDVNDNPPRFPQNTIHLRVLESSPVGTAIGSVKATDADTGKNAEVEYRIIDGDGTDMFDIVTEKDTQEGIITVKKPLDYESRRLYTLKVEAENTHVDPRFYYLGPFKDTTIVKISIEDVDEPPVFSRSSYLFEVHEDIEVGTIIGTVMARDPDSISSPIRFSLDRHTDLDRIFNIHSGNGSLYTSKPLDRELSQWHNLTVIAAEINNPKETTRVAVFVRILDVNDNAPQFAVFYDTFVCENARPGQLIQTISAVDKDDPLGGQKFFFSLAAVNPNFTVQDNEDNTARILTRKNGFNRHEISTYLLPVVISDNDYPIQSSTGTLTIRVCACDSQGNMQSCSAEALLLPAGLSTGALIAILLCIIILLVIVVLFAALKRQRKKEPLILSKEDIRDNIVSYNDEGGGEEDTQAFDIGTLRNPAAIEEKKLRRDIIPETLFIPRRTPTAPDNTDVRDFINERLKEHDLDPTAPPYDSLATYAYEGNDSIAESLSSLESGTTEGDQNYDYLREWGPRFNKLAEMYGGGESDKDS [CDH10]	0.0681	-0.401	-1.3	55.5 °C	52.5 °C	-0.163
MAAAVGRLLRASVARHVSAIPWGISATAALRPAACGRTSLTNLLCSGSSQAKLFSTSSSCHAPAVTQHAPYFKGTAVVNGEFKDLSLDDFKGKYLVLFFYPLDFTFVCPTEIVAFSDKANEFHDVNCEVVAVSVDSHFSHLAWINTPRKNGGLGHMNIALLSDLTKQISRDYGVLLEGSGLALRGLFIIDPNGVIKHLSVNDLPVGRSVEETLRLVKAFQYVETHGEVCPANWTPDSPTIKPSPAASKEYFQKVNQ [PRDX3]	0.452	0.801	-1.38	58.2 °C	57.9 °C	-0.00401
MAAALWGFFPVLLLLLLSGDVQSSEVPGAAAEGSGGSGVGIGDRFKIEGRAVVPGVKPQDWISAARVLVDGEEHVGFLKTDGSFVVHDIPSGSYVVEVVSPAYRFDPVRVDITSKGKMRARYVNYIKTSEVVRLPYPLQMKSSGPPSYFIKRESWGWTDFLMNPMVMMMVLPLLIFVLLPKVVNTSDPDMRREMEQSMNMLNSNHELPDVSEFMTRLFSSKSSGKSSSGSSKTGKSGAGKRR [EMC7]	0.424	-1.44	-0.331	54.4 °C	54.1 °C	0.0594
MPSKSLVMEYLAHPSTLGLAVGVACGMCLGWSLRVCFGMLPKSKTSKTHTDTESEASILGDSGEYKMILVVRNDLKMGKGKVAAQCSHAAVSAYKQIQRRNPEMLKQWEYCGQPKVVVKAPDEETLIALLAHAKMLGLTVSLIQDAGRTQIAPGSQTVLGIGPGPADLIDKVTGHLKLY [PTRH2]	0.447	-0.625	-2.48	52.3 °C	52.6 °C	0.0782
MPSATSHSGSGSKSSGPPPPSGSSGSEAAAGAGAAAPASQHPATGTGAVQTEAMKQILGVIDKKLRNLEKKKGKLDDYQERMNKGERLNQDQLDAVSKYQEVTNNLEFAKELQRSFMALSQDIQKTIKKTARREQLMREEAEQKRLKTVLELQYVLDKLGDDEVRTDLKQGLNGVPILSEEELSLLDEFYKLVDPERDMSLRLNEQYEHASIHLWDLLEGKEKPVCGTTYKVLKEIVERVFQSNYFDSTHNHQNGLCEEEEAASAPAVEDQVPEAEPEPAEEYTEQSEVESTEYVNRQFMAETQFTSGEKEQVDEWTVETVEVVNSLQQQPQAASPSVPEPHSLTPVAQADPLVRRQRVQDLMAQMQGPYNFIQDSMLDFENQTLDPAIVSAQPMNPTQNMDMPQLVCPPVHSESRLAQPNQVPVQPEATQVPLVSSTSEGYTASQPLYQPSHATEQRPQKEPIDQIQATISLNTDQTTASSSLPAASQPQVFQAGTSKPLHSSGINVNAAPFQSMQTVFNMNAPVPPVNEPETLKQQNQYQASYNQSFSSQPHQVEQTELQQEQLQTVVGTYHGSPDQSHQVTGNHQQPPQQNTGFPRSNQPYYNSRGVSRGGSRGARGLMNGYRGPANGFRGGYDGYRPSFSNTPNSGYTQSQFSAPRDYSGYQRDGYQQNFKRGSGQSGPRGAPRGRGGPPRPNRGMPQMNTQQVN [CAPRIN1]	-0.0442	-0.0976	-1.01	54.8 °C	54.9 °C	0.14
MGNLLKVLTCTDLEQGPNFFLDFENAQPTESEKEIYNQVNVVLKDAEGILEDLQSYRGAGHEIREAIQHPADEKLQEKAWGAVVPLVGKLKKFYEFSQRLEAALRGLLGALTSTPYSPTQHLEREQALAKQFAEILHFTLRFDELKMTNPAIQNDFSYYRRTLSRMRINNVPAEGENEVNNELANRMSLFYAEATPMLKTLSDATTKFVSENKNLPIENTTDCLSTMASVCRVMLETPEYRSRFTNEETVSFCLRVMVGVIILYDHVHPVGAFAKTSKIDMKGCIKVLKDQPPNSVEGLLNALRYTTKHLNDETTSKQIKSMLQ [FAM49B]	0.31	1.27	0.808	54.2 °C	54.2 °C	0.0154
MGRDTRSRSRSAGRRGRRRQSQSGSRSRSRSHGRRNRRRREDEGRRRRRRRSRERRSDSEEERWQRSGMRSRSPPRPKWHSRDGSSQSDSGEEQSRGQWARRRRRARSWSPSSSASSSASPGRSQSPRAAAAALSQQQSLQERLRLREERKQQEELMKAFETPEEKRARRLAKKEAKERKKREKMGWGEEYMGYTNTDNPFGDNNLLGTFIWNKALEKKGISHLEEKELKERNKRIQEDNRLELQKVKQLRLEREREKAMREQELEMLQREKEAEHFKTWEEQEDNFHLQQAKLRSKIRIRDGRAKPIDLLAKYISAEDDDLAVEMHEPYTFLNGLTVADMEDLLEDIQVYMELEQGKNADFWRDMTTITEDEISKLRKLEASGKGPGERREGVNASVSSDVQSVFKGKTYNQLQVIFQGIEGKIRAGGPNLDMGYWESLLQQLRAHMARARLRERHQDVLRQKLYKLKQEQGVESEPLFPILKQEPQSPSRSLEPEDAAPTPPGPSSEGGPAEAEVDGATPTEGDGDGDGEGEGEGEAVLMEEDLIQQSLDDYDAGRYSPRLLTAHELPLDAHVLEPDEDLQRLQLSRQQLQVTGDASESAEDIFFRRAKEGMGQDEAQFSVEMPLTGKAYLWADKYRPRKPRFFNRVHTGFEWNKYNQTHYDFDNPPPKIVQGYKFNIFYPDLIDKRSTPEYFLEACADNKDFAILRFHAGPPYEDIAFKIVNREWEYSHRHGFRCQFANGIFQLWFHFKRYRYRR [CACTIN]	-0.924	0.527	0.928	47.9 °C	50.4 °C	0.985
MAANMYRVGDYVYFENSSSNPYLIRRIEELNKTASGNVEAKVVCFYRRRDISNTLIMLADKHAKEIEEESETTVEADLTDKQKHQLKHRELFLSRQYESLPATHIRGKCSVALLNETESVLSYLDKEDTFFYSLVYDPSLKTLLADKGEIRVGPRYQADIPEMLLEGESDEREQSKLEVKVWDPNSPLTDRQIDQFLVVARAVGTFARALDCSSSVRQPSLHMSAAAASRDITLFHAMDTLYRHSYDLSSAISVLVPLGGPVLCRDEMEEWSASEASLFEEALEKYGKDFNDIRQDFLPWKSLTSIIEYYYMWKTTDRYVQQKRLKAAEAESKLKQVYIPTYSKPNPNQISTSNGKPGAVNGAVGTTFQPQNPLLGRACESCYATQSHQWYSWGPPNMQCRLCAICWLYWKKYGGLKMPTQSEEEKLSPSPTTEDPRVRSHVSRQAMQGMPVRNTGSPKSAVKTRQAFFLHTTYFTKFARQVCKNTLRLRQAARRPFVAINYAAIRAEYADRHAELSGSPLKSKSTRKPLACIIGYLEIHPAKKPNVIRSTPSLQTPTTKRMLTTPNHTSLSILGKRNYSHHNGLDELTCCVSD [MTA3]	-0.0389	0.944	4.09	49.3 °C	49.7 °C	-0.00121
